The data set has as its system Bacillus subtilis. Put plainly: cleaved RNA product abundance (RNA/gDNA barcode ratio) relative to median wild-type variant (ratio to wild type); higher = more accumulation of the downstream cleavage product. The note with it: cleavage site: cggR-gapA (positions -7 to +36 mutated). The essentials: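 Cleaved product abundance was measured with barcoded reporter mRNAs (truncated aprE or tetM) carrying mutagenized RNase Y cleavage-site windows in the B. subtilis chromosome. Cultures in LB at 37°C grew from OD600 0.0003 to 0.3. Gel-selected cleaved RNA was reverse transcribed and barcode-sequenced with genomic DNA barcodes, and the RNA:gDNA barcode ratio per construct was scaled to the median construct bearing the unmutated site.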

The mark [1] stands for this setting: experiment (reporter, strain, medium): exp 4a: truncated aprE reporter, strain BJT201 with 2% xylose (RNase J1 expressed).
The mark [2] stands for this setting: experiment (reporter, strain, medium): exp 2b: truncated aprE reporter, strain BJT200.
Where [3] appears, read: experiment (reporter, strain, medium): exp 6: tetM reporter, strain 168.

For “ACAGACGAAGGAGCCGCAAAGAAGTTATTAAGGGATGAATAATCCGTAAATATAAATATCTCTCACTTATTTAAA”, the “cleaved RNA product abundance” value under setting [1] came out at 0.28. As for “ACAGACGAAGGAGCCGCAAAGAAGTTATTAAGGGATGAATAATCCGTCAAAATAAATATCTCTCACTTATTTAAA”, the “cleaved RNA product abundance” value under setting [1] amounted to 0.262. For the sequence “ACAGACGAAGGAGCCGCAAAGAAGTTATTAAGGGATGAATAATCCGTCAATAAAAATATCTCTCACTTATTTAAA”, the “cleaved RNA product abundance” value under setting [1] was 0.173.

Turning to “ACAGACGAAGGAGCCGCAAAGAAGTTATTAAGGGATGAATAATCCGTCAATATAAATATCTCTCACTTATTTAAA”, the “cleaved RNA product abundance” value is 0.167 under setting [2], 0.234 under setting [1] and 0.247 under setting [3]. Take “ACAGACGAAGGAGCCGCAAAGAAGTTATTAAGGGATGAATAATCCGTCAATATAATTATCTCTCACTTATTTAAA”: under setting [1], the “cleaved RNA product abundance” value was 0.119. For “ACAGACGAAGGAGCCGCAAAGAAGTTATTAAGGGATGAATAATCCGTCAATATAGATATCTCTCACTTATTTAAA”, under setting [1], the “cleaved RNA product abundance” value came to 0.314.

On to “ACAGACGAAGGAGCCGCAAAGAAGTTATTAAGGGATGAATAATCCGTCAATATCAATATCTCTCACTTATTTAAA”, for which the “cleaved RNA product abundance” value under setting [1] came out at 0.15. With “ACAGACGAAGGAGCCGCAAAGAAGTTATTAAGGGATGAATAATCCGTCATTATAAATATCTCTCACTTATTTAAA”, the “cleaved RNA product abundance” value under setting [2] is 0.136. On to “ACAGACGAAGGAGCCGCAAAGAAGTTATTAAGGGATGAATAATCCGTCGATATAAATATCTCTCACTTATTTAAA”, for which the “cleaved RNA product abundance” value reads like this: under setting [2], 0.0608; under setting [1], 0.106. For the sequence “ACAGACGAAGGAGCCGCAAAGAAGTTATTAAGGGATGAATAATCCTACAATATAAATATCTCTCACTTATTTAAA”, the “cleaved RNA product abundance” value under setting [1] was 0.295. As to “ACAGACGAAGGAGCCGCAAAGAAGTTATTAAGGGATGAATAATCCTCAATATAAATATCTCTCACTTATTTAAAG”, the “cleaved RNA product abundance” value is, setting by setting: under setting [2], 0.205; under setting [1], 0.309. Take “ACAGACGAAGGAGCCGCAAAGAAGTTATTAAGGGATGAATAATCCTCCAATATAAATATCTCTCACTTATTTAAA”: the “cleaved RNA product abundance” value under setting [2] was 0.127. Consider “ACAGACGAAGGAGCCGCAAAGAAGTTATTAAGGGATGAATAATCCTTAAATATAAATATCTCTCACTTATTTAAA”, for which, under setting [1], the “cleaved RNA product abundance” value stood at 0.581.

With “ACAGACGAAGGAGCCGCAAAGAAGTTATTAAGGGATGAATAATCCTTCAAAATAAATATCTCTCACTTATTTAAA”, the “cleaved RNA product abundance” value by setting is: under setting [2], 0.259; under setting [1], 0.253. As to “ACAGACGAAGGAGCCGCAAAGAAGTTATTAAGGGATGAATAATCCTTCAACATAAATATCTCTCACTTATTTAAA”, under setting [2], the “cleaved RNA product abundance” value came out at 0.159.

As to “ACAGACGAAGGAGCCGCAAAGAAGTTATTAAGGGATGAATAATCCTTCAAGATAAATATCTCTCACTTATTTAAA”, the “cleaved RNA product abundance” value under setting [1] worked out at 0.162. With “ACAGACGAAGGAGCCGCAAAGAAGTTATTAAGGGATGAATAATCCTTCAATAAAAATATCTCTCACTTATTTAAA”, the “cleaved RNA product abundance” value under setting [2] worked out at 0.185. As for “ACAGACGAAGGAGCCGCAAAGAAGTTATTAAGGGATGAATAATCCTTCAATATAAACATCTCTCACTTATTTAAA”, the “cleaved RNA product abundance” value came out at 0.415 under setting [2] and 0.33 under setting [1]. Turning to “ACAGACGAAGGAGCCGCAAAGAAGTTATTAAGGGATGAATAATCCTTCAATATAAATAACTCTCACTTATTTAAA”, the “cleaved RNA product abundance” value reads like this: under setting [2], 0.395; under setting [1], 0.935. In the case of “ACAGACGAAGGAGCCGCAAAGAAGTTATTAAGGGATGAATAATCCTTCAATATAAATATCTCTCACTTATTTAAA”, the “cleaved RNA product abundance” value reads like this: under setting [2], 0.442; under setting [1], 0.576; under setting [3], 0.617. Take “ACAGACGAAGGAGCCGCAAAGAAGTTATTAAGGGATGAATAATCCTTCAATATAAATATCTCTCACTTATTTAAG”: under setting [1], the “cleaved RNA product abundance” value came to 0.558. Regarding “ACAGACGAAGGAGCCGCAAAGAAGTTATTAAGGGATGAATAATCCTTCAATATAAATTTCTCTCACTTATTTAAA”, the “cleaved RNA product abundance” value under setting [1] amounted to 0.346.

For “ACAGACGAAGGAGCCGCAAAGAAGTTATTAAGGGATGAATAATCCTTCAATATAAGTATCTCTCACTTATTTAAA”, the “cleaved RNA product abundance” value under setting [1] came to 0.213. Take “ACAGACGAAGGAGCCGCAAAGAAGTTATTAAGGGATGAATAATCCTTCAATATAATTATCTCTCACTTATTTAAA”: the “cleaved RNA product abundance” value is 0.219 under setting [2] and 0.387 under setting [1]. Take “ACAGACGAAGGAGCCGCAAAGAAGTTATTAAGGGATGAATAATCCTTCAATATACATATCTCTCACTTATTTAAA”: the “cleaved RNA product abundance” value was 0.334 under setting [2] and 0.785 under setting [1]. For “ACAGACGAAGGAGCCGCAAAGAAGTTATTAAGGGATGAATAATCCTTCAATATATATATCTCTCACTTATTTAAA”, the “cleaved RNA product abundance” value under setting [1] was 0.604.

As for “ACAGACGAAGGAGCCGCAAAGAAGTTATTAAGGGATGAATAATCCTTCAATATGAATATCTCTCACTTATTTAAA”, under setting [1], the “cleaved RNA product abundance” value was determined as 0.18.

On to “ACAGACGAAGGAGCCGCAAAGAAGTTATTAAGGGATGAATAATCCTTCAATGTAAATATCTCTCACTTATTTAAA”, for which the “cleaved RNA product abundance” value under setting [1] amounted to 0.167. As to “ACAGACGAAGGAGCCGCAAAGAAGTTATTAAGGGATGAATAATCCTTCAATTTAAATATCTCTCACTTATTTAAA”, the “cleaved RNA product abundance” value runs as follows: under setting [2], 0.144; under setting [1], 0.138. Take “ACAGACGAAGGAGCCGCAAAGAAGTTATTAAGGGATGAATAATCCTTCAGTATAAATATCTCTCACTTATTTAAA”: under setting [1], the “cleaved RNA product abundance” value amounted to 0.166. For the sequence “ACAGACGAAGGAGCCGCAAAGAAGTTATTAAGGGATGAATAATCCTTCATTATAAATATCTCTCACTTATTTAAA”, the “cleaved RNA product abundance” value under setting [1] was 0.313.

As to “ACAGACGAAGGAGCCGCAAAGAAGTTATTAAGGGATGAATAATCCTTCCATATAAATATCTCTCACTTATTTAAA”, the “cleaved RNA product abundance” value under setting [2] turned out to be 0.19. As to “ACAGACGAAGGAGCCGCAAAGAAGTTATTAAGGGATGAATAATCCTTCGATATAAATATCTCTCACTTATTTAAA”, the “cleaved RNA product abundance” value under setting [1] worked out at 0.257. As for “ACAGACGAAGGAGCCGCAAAGAAGTTATTAAGGGATGAATAATCGCACAATATAAATATCTCTCACTTATTTAAA”, the “cleaved RNA product abundance” value under setting [1] worked out at 0.0643.

As for “ACAGACGAAGGAGCCGCAAAGAAGTTATTAAGGGATGAATAATCGCTAAATATAAATATCTCTCACTTATTTAAA”, the “cleaved RNA product abundance” value under setting [2] was 0.0982. As to “ACAGACGAAGGAGCCGCAAAGAAGTTATTAAGGGATGAATAATCGCTCAAAATAAATATCTCTCACTTATTTAAA”, the “cleaved RNA product abundance” value under setting [1] is 0.116.

“ACAGACGAAGGAGCCGCAAAGAAGTTATTAAGGGATGAATAATCGCTCAATATAAATACCTCTCACTTATTTAAA”: the “cleaved RNA product abundance” value under setting [2] was determined as 0.0956. As for “ACAGACGAAGGAGCCGCAAAGAAGTTATTAAGGGATGAATAATCGCTCAATATAAATATCTCTCACTTATTTAAA”, the “cleaved RNA product abundance” value under setting [2] came out at 0.101, the “cleaved RNA product abundance” value under setting [1] is 0.12 and the “cleaved RNA product abundance” value under setting [3] is 0.0971. On to “ACAGACGAAGGAGCCGCAAAGAAGTTATTAAGGGATGAATAATCGCTCAATATATATATCTCTCACTTATTTAAA”, for which the “cleaved RNA product abundance” value is, setting by setting: under setting [2], 0.113; under setting [1], 0.0772. As to “ACAGACGAAGGAGCCGCAAAGAAGTTATTAAGGGATGAATAATCGCTCAATATTAATATCTCTCACTTATTTAAA”, the “cleaved RNA product abundance” value under setting [2] is 0.0992.

With “ACAGACGAAGGAGCCGCAAAGAAGTTATTAAGGGATGAATAATCGCTCAATGTAAATATCTCTCACTTATTTAAA”, under setting [1], the “cleaved RNA product abundance” value was determined as 0.048. “ACAGACGAAGGAGCCGCAAAGAAGTTATTAAGGGATGAATAATCGCTCATTATAAATATCTCTCACTTATTTAAA”: the “cleaved RNA product abundance” value under setting [2] was found to be 0.0605.

For the sequence “ACAGACGAAGGAGCCGCAAAGAAGTTATTAAGGGATGAATAATCGTTCAATATAAATATCTCTCACTTATTTAAA”, the “cleaved RNA product abundance” value under setting [1] was determined as 0.0943.

On to “ACAGACGAAGGAGCCGCAAAGAAGTTATTAAGGGATGAATAATCTATCAATATAAATATCTCTCACTTATTTAAA”, for which the “cleaved RNA product abundance” value under setting [1] stood at 0.135.

On to “ACAGACGAAGGAGCCGCAAAGAAGTTATTAAGGGATGAATAATCTCACAATATAAATATCTCTCACTTATTTAAA”, for which the “cleaved RNA product abundance” value worked out at 0.18 under setting [2] and 0.262 under setting [1].

With “ACAGACGAAGGAGCCGCAAAGAAGTTATTAAGGGATGAATAATCTCTAAATATAAATATCTCTCACTTATTTAAA”, the “cleaved RNA product abundance” value amounted to 0.627 under setting [2] and 0.558 under setting [1].

Consider “ACAGACGAAGGAGCCGCAAAGAAGTTATTAAGGGATGAATAATCTCTCAAAATAAATATCTCTCACTTATTTAAA”, for which the “cleaved RNA product abundance” value amounted to 0.283 under setting [2] and 0.283 under setting [1]. Take “ACAGACGAAGGAGCCGCAAAGAAGTTATTAAGGGATGAATAATCTCTCAACATAAATATCTCTCACTTATTTAAA”: the “cleaved RNA product abundance” value under setting [1] amounted to 0.156. Consider “ACAGACGAAGGAGCCGCAAAGAAGTTATTAAGGGATGAATAATCTCTCAATATAAAAATCTCTCACTTATTTAAA”, for which the “cleaved RNA product abundance” value is 0.464 under setting [2] and 0.43 under setting [1]. As to “ACAGACGAAGGAGCCGCAAAGAAGTTATTAAGGGATGAATAATCTCTCAATATAAATAACTCTCACTTATTTAAA”, the “cleaved RNA product abundance” value under setting [2] amounted to 0.645. Regarding “ACAGACGAAGGAGCCGCAAAGAAGTTATTAAGGGATGAATAATCTCTCAATATAAATATCTCTCACTTATTTAAA”, the “cleaved RNA product abundance” value reads like this: under setting [2], 0.688; under setting [1], 0.738; under setting [3], 0.96. In the case of “ACAGACGAAGGAGCCGCAAAGAAGTTATTAAGGGATGAATAATCTCTCAATATAAATATTTCTCACTTATTTAAA”, the “cleaved RNA product abundance” value under setting [1] stood at 0.948. Regarding “ACAGACGAAGGAGCCGCAAAGAAGTTATTAAGGGATGAATAATCTCTCAATATAAATTTCTCTCACTTATTTAAA”, the “cleaved RNA product abundance” value under setting [1] was 0.708.

For the origin of these results see the supplement of paper PMC11780869.
